Experimental data reported in US20070098681A1.
Several values for one entry are separate records, joined by “and”; a condition that tells them apart may be missing. Equal entries are not always repeated.

Columns and labels:
[1] = biological target: DR5-IgG (human); assay: method not stated; against zinc-bound Apo-2L
[2] = biological target: DR5-IgG (human); assay: phage bound and eluted from DR5-IgG coated well against blank well; phage grown at 37 C

Row | Substance | fold decrease in DR5 affinity [1] [fold] | Enrichment (ratio (DR5-IgG well / blank well)) [2]
1 | Apo-2L after removal of the bound metal by dialysis against chelating agents (ligand) | 7 | 
2 | wild-type Apo2L/TRAIL (residues 96-281) displayed on M13 phage (ligand) |  | 1.5 and 3.3
